Results: patent publication US20240117011A1 (US Dept. of Health and Human Services, published 2024)

Tests used:
[1] = molecular target: SARS-CoV-2 NTD (SARS-CoV-2, UniProt P0DTC2 14-305); test: ELISA
[2] = molecular target: full-length SARS-CoV-2 spike, WA-1 / Wuhan-1 (S wt) (SARS-CoV-2, UniProt P0DTC2 14-1273); test: cell-based or functional assay
[3] = molecular target: SARS-CoV-2 RBD (SARS-CoV-2, UniProt P0DTC2 319-541); test: ELISA
[4] = molecular target: T1, SARS-CoV-2 S1 (SARS-CoV-2, UniProt P0DTC2 14-681); test: ELISA
T1 construct: range 1-681

Row | Binder | binding result [1] | pseudotyped virus neutralization IC50 [2] | pseudotyped virus neutralization IC80 [2] | binding result [3] | binding result [4]
1 | A19-61.1 (antibody, V domains shown) VH: QVQLVESGGGVVQPGRSLRLSCAASGFTFSSYAFHWVRQAPGKGLEWVAVISYDGSNQYYADSVKGRFTISRDNSKNTLYLQMNSLRADDTAVYYCARDLAIAVAGTWHYYNGMDVWGQGTTVTVSS VL: DIQMTQSPSSVSASVGDRVIITCRASQGISSWLAWYQQKPGKAPKVLIYDASSLQSGVPSRFSGSGYGTDFTLTISSLQPEDSATYYCQQAKSFPITFGQGTRLEIK | no binding | 0.0709 µg/mL | 0.163 µg/mL |  | 
2 | A19-46.1 (antibody, V domains shown) VH: QVQLVESGGGVVQPGRSLRLSCAASGFTLSSYGMHWVRQAPGKGLEWVAVISYDGSNKYYVDSVKGRFTISRDNSKNTLYLQMNSLRAEDTAVYYCARGWAYWELLPDYYYGMDVWGQGTTVTVSS VL: QTVVTQEPSFSVSPGGTVTLTCGLSSGSVSTAYFPSWYQQTPGQAPRTLIYGTNTRSSGVPDRFSGSILGNKAALTITGAQADDESDYYCVLYMGRGIVVFGGGTKLTVL |  | 0.0398 µg/mL | 0.129 µg/mL |  | 
3 | A23-105.1 (antibody, V domains shown) VH: QVQLVESGGGVVQPGRSLRLSCAASGFTFSNYAIHWVRQAPGKGLEWVAVISYDGSNKYYADSVKGRFTISRDNSKNTLYLEMNSLRAEDMAVYYCARVGPYQYDSSAAFDIWGQGTMVTVSS VL: not shown | no binding | 0.0889 µg/mL | 0.228 µg/mL |  | 
4 | A19-1.1 (antibody, V domains shown) VH: QVQLVESGGGVVQPGRSLRLSCAASGFTFTNYAMHWVRQAPGKGLEWVAVISNDGSDKYYADSVKGRFTISRDNSKSTVYLQMSSLRPEDTAVYFCARDPPQVHWSLDYWGQGTLVTVSS VL: QSALTQPPSASGSPGQSVTISCTGTSSDVGDYNYVSWYQHHPGKAPKLIIYDVSKRPSGVPDRFSGSKSGDTASLTVSGLQAEDEADYYCSSYAGNNNAVFGTGTKVTVL | no binding | 0.126 µg/mL | 0.53 µg/mL |  | 
5 | A20-29.1 (antibody, V domains shown) VH: EVQLVESGGGLVQPGRSLRLSCAASGFTFDDYAMHWVRQTPGKGLEWVSGISWNSGDIDYADSVKGRFTISRDNAKNSLYLQMNSLRTEDTALYYCTKGWFGEFFGAGSICDYWGQGTLVTVSS VL: EIVMTQSPATLSVSPGERATLSCRASQSVSNNLAWYQQKPGQAPRLLIYGASTRATGIPARFSGSGSGTEFTLTISSLQSEDFAVYYCQQYNNWPLFGQGTKVEIK |  | 0.348 µg/mL | 1.36 µg/mL |  | 
6 | A20-36.1 (antibody, V domains shown) VH: QVQLVESGGGVVQPGRSLRLSCAASGFIFSSYGVHWVRQAPGKGLEWVAVIWHDESNKDYADSVKGRFTISRDNSKNTVYLQMNSLRAEDTAMYYCARDGYDFLTGAYELDYWGQGTLVTVSS VL: SYELTQPPSVSVSPGQTARITCSGDALPKQYAYWYQQKPGQAPVVVIYKDSERPSGIPERFSGSSSGTTVTLTISGVQAEDEADYYCQSADSSGTWVFGGGTKLTVL | no binding | 1.39 µg/mL | 3.76 µg/mL | no binding | 
7 | A23-97.1 (antibody, V domains shown) VH: QVQLVESGGGVVQPGGSLRLSCAASGFTFSSFGMHWVRQAPGKGLEWVAFIRYDGSNKYYADSVKGRFTISRDNSKNTLYLQMNSLRAEDTAVYYCAKTELYYYDSSGPLGWGQGTLVTVSS VL: not shown | no binding | 0.484 µg/mL | 5.28 µg/mL |  | 
8 | A23-113.1 (antibody, V domains shown) VH: QVHLEESGGAVVQPGRSLRLSCAASGFTFSSYGMHWVRQAPGKGLEWVAVISHDGSYKYYADSVKGRFTISRDNSKDTLYLQTNSLRAEDTAMYYCAKSYGYWMAYFDYWGQGTLVTVSS VL: DIQMTQSPSSLSASVGDRVTITCRASQDISNYLAWYQQKPGKVPKLLIYAASTLQSGVPSRFSGSGSGTDFTLTISSLQPEDVATYYCQKYNSPWHTFGGGTKVEIK | no binding | 0.393 µg/mL | 7.81 µg/mL |  | 
9 | A23-80.1 (antibody, V domains shown) VH: QVQLVQSGAEVKKPGASVKVSCKASGYTFTSNGVTWVRQAPGQGLEWMGWISTYNGDTNYAQKLQGRVSMTTDTSTRTVYMELRSLRSDDTAVYYCARVGDAYCSGGSCYHFDYWGQGTLVTVSS VL: EIVMTQSPATLSVSPGERATLSCRASQSVSTNLAWYQQKPGQAPRLLIYGASTRATGIPARFSGSGSGTEFTLTISSLQSEDFALYYCQQYDNWPPEFTFGPGTKVDIK | no binding | 0.321 µg/mL |  |  | 
10 | A19-82.1 (antibody, V domains shown) VH: QVQLVESGGGVVQPGRSLRLSCVVSGLIFSTYDMHWVRQAPGKGLEWVAVISYDGSYKHYADSVKGRFTISRDSSKNTLYLQMNSLRPEDTAVYYCAKGEGVVAGTGKFDYWGQGTLVTVSS VL: SYVLTQPPSVSVAPGQTARITCGGNNIGSKSVHWYQQKPGQAPVLVVYDDSDRPSGIPERFSGSNSGNTATLTISRVEAGDEADYYCQVWDGSGDPWVFGGGTKLTVL | no binding | 0.72 µg/mL | 5.93 µg/mL |  | 
11 | A20-9.1 (antibody, V domains shown) VH: QVQLVESGGGVVQPGRSLRLSCAASGFTFSSYGMHWVRQAPGKGLEWVAFISYDGSNKYYADSVKGRFTISRDNSKNTLYLQMNSLRAEDTAVYYCAKDYWSVAAGTSWFDPWGQGTLVSVSS VL: SYELTQPPSVSVSPGQTARITCSGDALPKQYAYWYQQKPGQAPVVVIYKDSERPSGIPERFSGSSSGTTVTLTISGVQAEDEADYYCQSADSSGTWVFGGGTKLTVL | no binding | 1.21 µg/mL |  | no binding | 
12 | A19-30.1 (antibody, V domains shown) VH: QVQLVESGGGVVQPGRSLRLSCAASGFTFSNYGMHWVRQAPGKGLEWLAVISYDGSNKYYADSVKGRFTISRDNSKNTLFLQMNSLRAEDTAVYYCAKESQFGELFEALDYWGQGTLVTVSS VL: SYELTQPPSVSVSPGQTARITCSGDALPRKYAFWYQQKSGQAPVLVISEDSKRPSGIPERFSGSSSGTMATLTISGAQVEDEADYYCYSTDSSGNHRVFGGGTKLTVL | no binding |  |  | binds | binds
